Test results taken from article PMC8980812, “Regulation of the activity of the bacterial histidine kinase PleC by the scaffolding protein PodJ” (The Journal of Biological Chemistry, 2022).

Tests used:
[1] = target: T1, PleC PAS AB-HK (Caulobacter crescentus); test: cell-based or functional assay
T1 sequence (P37894 whole entry, looked up): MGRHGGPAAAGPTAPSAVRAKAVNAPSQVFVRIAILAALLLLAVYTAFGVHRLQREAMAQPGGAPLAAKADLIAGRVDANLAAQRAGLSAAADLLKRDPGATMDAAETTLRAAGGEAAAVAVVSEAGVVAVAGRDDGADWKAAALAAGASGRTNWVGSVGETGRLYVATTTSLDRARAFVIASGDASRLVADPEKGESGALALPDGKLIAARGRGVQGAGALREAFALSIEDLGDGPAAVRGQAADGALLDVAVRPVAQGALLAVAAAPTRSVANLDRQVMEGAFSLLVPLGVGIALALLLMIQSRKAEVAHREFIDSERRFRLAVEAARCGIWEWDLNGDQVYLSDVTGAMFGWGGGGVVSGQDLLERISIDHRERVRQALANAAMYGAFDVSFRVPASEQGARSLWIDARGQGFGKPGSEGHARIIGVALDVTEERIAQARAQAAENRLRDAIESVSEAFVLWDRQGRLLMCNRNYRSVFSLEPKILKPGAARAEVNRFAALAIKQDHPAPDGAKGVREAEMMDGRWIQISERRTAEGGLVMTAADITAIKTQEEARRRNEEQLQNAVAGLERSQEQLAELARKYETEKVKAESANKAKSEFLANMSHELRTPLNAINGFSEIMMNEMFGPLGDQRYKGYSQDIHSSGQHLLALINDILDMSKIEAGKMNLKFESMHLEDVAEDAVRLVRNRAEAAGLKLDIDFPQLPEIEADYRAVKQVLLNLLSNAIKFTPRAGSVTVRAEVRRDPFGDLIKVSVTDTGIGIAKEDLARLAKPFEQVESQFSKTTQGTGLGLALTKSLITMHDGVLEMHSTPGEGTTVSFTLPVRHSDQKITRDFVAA

[2] = target: the molecule itself; test: SEC; 3.2 mg/ml His-PodJ(1–635), Superdex 200 10/300 GL, 50 mM Tris-HCl pH 8.0, 300 mM KCl

B1: His-PodJ(1–635) (domain or fragment, Caulobacter crescentus, UniProt Q9ZG88 1-635, looked up)
chain: MTAASPWSVKGIDPKAREVAKDLARRSGMTLGEWLNRMIIEGDGQTADPRLAGDDVPNRAYLEIVKDDAPPRIEIAEHPADEVGRVALALDRLTQRIEAAEGRNAAAITGIDHSVRDALTRLGASEREQIAVAARFEGAVDELKTEQARATERLRRIESEAAGPRSAEALRALEGALGKVAGHLYEGEARTREAIATLEAKLNQQSSGDPSALVEAVVARLGERLEAAETRTSDALRELGASFQALDQRLGAVETANPATGVQEGLDSLAATLTQKMEAARLEMAAKLRESADGRFDRMERKLGEMAAHVQAAEQRSAQAIERMGREIVGVADAFNRRVHAAESRNASAIEQVGGEVARIAASVEHKLNRADSVQAQALEKLGGEIARITEKLAERIGSAERRNALAIDDVGEQVARVTERLNQRHERSSQELVDRIRQSEERTLRMLEEAREKIDSRLSEAQRKLEAAPPSPPPAQAPAPVATAQRPVPPAASPFEDNYFSQAASFSTSEDEADAFDAPPAPARSFEVAEFPAAEPEEPAFAHDDYAIADGFEPESPRYEVEPEVSDFAPAEPSRPMSTRDIIEQARAAARAAAASEGKGGKAKSAKKEKASKASGSLFSGFGGFSTKKSKARL
notes: PodJ, Caulobacter crescentus, cytoplasmic domains without the transmembrane tether, residues 1–635; also called cytoplasmic portion of PodJ; source: E. coli Rosetta (DE3), plasmid pwz091, purified (HisTrap HP)
[1]
  IC50 of the repression of the ADP production rate of 7.5 μM PleC PAS AB-HK with 1000 μM ATP (coupled enzyme assay), PodJ(1–635) 0-7.5 μM: 1860 nM
[2]
  binding result: binds
